Assay results published in the supplement of paper PMC7125110.
± gives the standard error. Variants at the floor of the assay were thinned out.

B1: glmS ribozyme (parent)
chain: AUAAAAGCGCCAGAACUACAGAAAUGUAGUUGACGAGGAGGAGGUUUAUCGAAUUUUCGGCGGAUGCCUCCAAA

Columns and labels:
Conditions in all cases: with glucosamine-6-phosphate
glucosamine-6-phosphate [1] = variants of: B1; experiment: self-cleavage kobs at 160 uM GlcN6P; higher = faster cleavage; RNA array
Outline: (§1)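 A hybridised Cy3 probe tracked barcoded ribozyme variants, transcribed in situ by E. coli RNA polymerase on sequenced MiSeq chips, at 37 °C. The variants received 40 μM to 10 mM glucosamine-6-phosphate in HEPES/KCl/Mg(OAc)2 buffer. kobs came from decay fits and kcat and KM from weighted Michaelis–Menten fits.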

glucosamine-6-phosphate [2] = variants of: B1; experiment: self-cleavage kobs at 640 uM GlcN6P; higher = faster cleavage; RNA array
Outline: as §1

glucosamine-6-phosphate [3] = variants of: B1; experiment: self-cleavage kobs at 10000 uM GlcN6P; higher = faster cleavage; RNA array
Outline: as §1

glucosamine-6-phosphate [4] = variants of: B1; experiment: self-cleavage kobs at 2500 uM GlcN6P; higher = faster cleavage; RNA array
Outline: as §1

| Variant | self-cleavage kobs at 160 uM GlcN6P (glucosamine-6-phosphate [1]) [s⁻¹] | self-cleavage kobs at 640 uM GlcN6P (glucosamine-6-phosphate [2]) [s⁻¹] | self-cleavage kobs at 10000 uM GlcN6P (glucosamine-6-phosphate [3]) [s⁻¹] | self-cleavage kobs at 2500 uM GlcN6P (glucosamine-6-phosphate [4]) [s⁻¹] |
| --- | --- | --- | --- | --- |
| G62U C68G | < 1e-05 | < 1e-05 | < 1e-05 | – |
| U57C G62A | < 1e-05 | – | < 1e-05 | – |
| A48C U55A G66C | < 1e-05 | – | – | – |
| A6G C50G C71G | – | 0.000369 ± 7.4e-05 | – | 9.48e-05 ± 2.2e-05 |
| G59U G60U G62A | < 1e-05 | – | – | < 1e-05 |
| U55C C58U | < 1e-05 | – | 6.55e-05 ± 8.7e-06 | – |
| G59U U65A C67U | < 1e-05 | – | – | – |
| G38A G41A C71A | < 1e-05 | – | – | < 1e-05 |
| G60A C61U | < 1e-05 | < 1e-05 | < 1e-05 | < 1e-05 |
| G41U U45C G59U | < 1e-05 | < 1e-05 | – | < 1e-05 |
| A39G C58U G63U | < 1e-05 | < 1e-05 | – | – |
| G43A G59A A64U | < 1e-05 | – | < 1e-05 | – |
| U46C C58U C67A | < 1e-05 | – | – | – |
| G38A A64G C67U | < 1e-05 | – | – | – |
| G51A U57C | < 1e-05 | < 1e-05 | < 1e-05 | < 1e-05 |
| G40A A48G C50G | < 1e-05 | – | – | < 1e-05 |
| U46A C61G | < 1e-05 | < 1e-05 | – | < 1e-05 |
| U45A A53G C71U | 0.00381 ± 0.0013 | 0.00623 ± 0.0015 | – | 0.00735 ± 0.0025 |
| A6G C16G G32A | – | < 1e-05 | – | < 1e-05 |
| G37C U47C A52U | < 1e-05 | – | – | – |
| G38A G60U | < 1e-05 | < 1e-05 | < 1e-05 | < 1e-05 |
| G60A C68G | 8.43e-05 ± 3.9e-05 | 7.21e-05 ± 1.6e-05 | – | 6.95e-05 ± 2.5e-05 |
| G62C U65G | < 1e-05 | < 1e-05 | – | – |
| G38A A53C | < 1e-05 | – | – | – |
| A39U A42G G60U | < 1e-05 | < 1e-05 | – | – |
| A42C A53C | < 1e-05 | < 1e-05 | – | – |
| G43A G44A | < 1e-05 | < 1e-05 | < 1e-05 | < 1e-05 |

| Variant | self-cleavage kobs at 160 uM GlcN6P (glucosamine-6-phosphate [1]) [s⁻¹] | self-cleavage kobs at 640 uM GlcN6P (glucosamine-6-phosphate [2]) [s⁻¹] | self-cleavage kobs at 10000 uM GlcN6P (glucosamine-6-phosphate [3]) [s⁻¹] | self-cleavage kobs at 2500 uM GlcN6P (glucosamine-6-phosphate [4]) [s⁻¹] |
| --- | --- | --- | --- | --- |
| A6C U31C C70A | – | 7.34e-05 ± 3e-05 | – | – |
| A6C A14U U55G | – | < 1e-05 | – | – |
| C61U A64C C67G | < 1e-05 | – | – | < 1e-05 |
| G51U A53U C58A C70A | 8.95e-05 ± 1.6e-05 | 7.01e-05 ± 2.6e-05 | – | 5.47e-05 ± 2.1e-05 |
| A48C C50A A52G | < 1e-05 | – | – | < 1e-05 |
| A48C C58G C71A | < 1e-05 | < 1e-05 | – | – |
| G40A U55A | 0.000151 ± 5.3e-05 | 0.00156 ± 0.0003 | – | 0.000842 ± 0.00022 |
| G38U G60C | < 1e-05 | < 1e-05 | – | – |
| A6G G37A G41A | – | < 1e-05 | < 1e-05 | < 1e-05 |
| G37A G38U U55C | < 1e-05 | < 1e-05 | – | – |
| G38A G44U C58A | < 1e-05 | < 1e-05 | – | < 1e-05 |
| G40C U69A | < 1e-05 | – | – | < 1e-05 |
| U55A A64G C71A | 0.000178 ± 4.2e-05 | 0.000572 ± 0.00013 | – | – |
| G51U G60C C70U | < 1e-05 | < 1e-05 | – | – |
| A6C A39U G41C A52U | – | < 1e-05 | – | < 1e-05 |
| G38U G43A C58G U65C | < 1e-05 | – | – | – |
| G37C G41A C50G G60A C67G C68A | 9.12e-05 ± 1.6e-05 | 8.46e-05 ± 1.9e-05 | – | 9.58e-05 ± 1.3e-05 |
| C58U G63A | < 1e-05 | – | < 1e-05 | – |
| C50G A53G C61U | 0.000208 ± 7.8e-05 | 0.000248 ± 8.1e-05 | 9.79e-05 ± 2.5e-05 | 0.000398 ± 9.7e-05 |
| A52C U65A | < 1e-05 | < 1e-05 | < 1e-05 | < 1e-05 |
| A64U C68U | < 1e-05 | < 1e-05 | – | – |
| G38C U54G | < 1e-05 | < 1e-05 | < 1e-05 | – |
| G40A A42C A48G | < 1e-05 | < 1e-05 | < 1e-05 | < 1e-05 |
| G43C U55A | < 1e-05 | < 1e-05 | – | – |
| C50U U56C C67U | < 1e-05 | – | – | – |
| U45G A53C C71U | 0.000134 ± 5.7e-05 | 0.000323 ± 7e-05 | – | 0.000938 ± 0.00023 |
| C50G G59U | 7.49e-05 ± 1.3e-05 | 0.000241 ± 8.6e-05 | – | 0.000355 ± 0.0001 |

| Variant | self-cleavage kobs at 160 uM GlcN6P (glucosamine-6-phosphate [1]) [s⁻¹] | self-cleavage kobs at 640 uM GlcN6P (glucosamine-6-phosphate [2]) [s⁻¹] | self-cleavage kobs at 10000 uM GlcN6P (glucosamine-6-phosphate [3]) [s⁻¹] | self-cleavage kobs at 2500 uM GlcN6P (glucosamine-6-phosphate [4]) [s⁻¹] |
| --- | --- | --- | --- | --- |
| G38C G62U | < 1e-05 | – | < 1e-05 | < 1e-05 |
| A42C G62C G63U U69A | < 1e-05 | – | – | < 1e-05 |
| C58U C68G | 4.79e-05 ± 1.6e-05 | 0.000137 ± 2.7e-05 | – | 8.11e-05 ± 2e-05 |
| G40U U45A U56G | 6.56e-05 ± 1.6e-05 | – | – | 0.000611 ± 0.00014 |
| G38C G44U C50U | < 1e-05 | < 1e-05 | – | – |
| G43C C61U | < 1e-05 | < 1e-05 | < 1e-05 | < 1e-05 |
| G63A G66C | < 1e-05 | < 1e-05 | < 1e-05 | < 1e-05 |
| A6C A42C C50A U54G G59C C61U | – | < 1e-05 | – | – |
| A39C U49A C61U C68G | < 1e-05 | – | – | < 1e-05 |
| G41A G51U | < 1e-05 | < 1e-05 | < 1e-05 | < 1e-05 |
| G44U U45G U69A | < 1e-05 | – | – | – |
| G37C G43C A52C | < 1e-05 | – | – | < 1e-05 |
| A6C U31C G62A | – | < 1e-05 | – | – |
| U46G U55G G60C | < 1e-05 | – | – | < 1e-05 |
| A42C U47C | < 1e-05 | < 1e-05 | – | < 1e-05 |
| C50G G51A | < 1e-05 | – | < 1e-05 | – |
| U49A U54A C70G | 4.17e-05 ± 1.8e-05 | – | – | – |
| G43A U56A U57A C61U | < 1e-05 | – | – | – |
| U46A G51C A52G | < 1e-05 | < 1e-05 | – | < 1e-05 |
| G43A U65C | < 1e-05 | < 1e-05 | – | < 1e-05 |
| G41A C50G | < 1e-05 | < 1e-05 | < 1e-05 | < 1e-05 |
| A39G U46G A53C | 5.35e-05 ± 2.3e-05 | 0.000315 ± 0.00012 | – | – |
| G41U G59A | < 1e-05 | < 1e-05 | – | < 1e-05 |
| A48U G59C | < 1e-05 | < 1e-05 | < 1e-05 | < 1e-05 |
| A6G G7A C11G G32A U45G | – | < 1e-05 | – | – |
| U49G G60U | < 1e-05 | < 1e-05 | – | < 1e-05 |
| A39G A52U C61G A64C | < 1e-05 | < 1e-05 | – | < 1e-05 |

| Variant | self-cleavage kobs at 160 uM GlcN6P (glucosamine-6-phosphate [1]) [s⁻¹] | self-cleavage kobs at 640 uM GlcN6P (glucosamine-6-phosphate [2]) [s⁻¹] | self-cleavage kobs at 10000 uM GlcN6P (glucosamine-6-phosphate [3]) [s⁻¹] | self-cleavage kobs at 2500 uM GlcN6P (glucosamine-6-phosphate [4]) [s⁻¹] |
| --- | --- | --- | --- | --- |
| A39U U54C G62C | < 1e-05 | < 1e-05 | – | < 1e-05 |
| A6G A39U C70A | – | < 1e-05 | – | – |
| U55A C58U | < 1e-05 | – | 7.74e-05 ± 6.6e-06 | – |
| C58U C61G G66A C67A | 5.89e-05 ± 2e-05 | 0.000108 ± 3.7e-05 | – | – |
| G40A U45C | 4.64e-05 ± 1.6e-05 | – | – | 0.000553 ± 0.00016 |
| A6G C16A G35U A48U | – | < 1e-05 | – | < 1e-05 |
| A48G U49C G60A | < 1e-05 | < 1e-05 | – | < 1e-05 |
| G51C U56C | < 1e-05 | < 1e-05 | < 1e-05 | < 1e-05 |
| U57A G60A | < 1e-05 | – | – | – |
| G60C G63A | < 1e-05 | < 1e-05 | < 1e-05 | < 1e-05 |
| G37C A39G G44A | < 1e-05 | < 1e-05 | – | – |
| U57G G63C | < 1e-05 | < 1e-05 | – | < 1e-05 |
| G60A C61U G63A | < 1e-05 | – | – | < 1e-05 |
| A39G C50G | 0.000247 ± 0.00011 | – | – | – |
| G41U G44C U54C | < 1e-05 | < 1e-05 | – | < 1e-05 |
| G40A C50U | < 1e-05 | < 1e-05 | < 1e-05 | – |
| G37A G60A G66U | < 1e-05 | – | – | – |
| C58G C70A | 0.000411 ± 0.00017 | 4.04e-05 ± 1.9e-05 | – | 5.93e-05 ± 1.4e-05 |
| C61G G62U | < 1e-05 | < 1e-05 | – | < 1e-05 |
| A39C U57G C71A | < 1e-05 | < 1e-05 | – | < 1e-05 |
| A42U U47C A52C | < 1e-05 | – | – | < 1e-05 |
| A6G G35U C50U | – | < 1e-05 | – | – |
| G60U C68U | < 1e-05 | – | < 1e-05 | – |
| A53U U54G U55A U56A | 0.000355 ± 7.8e-05 | – | – | – |
